{
  "source": "patent US20210220432A1",
  "about": "“Application of Polypeptide in Preparation of Composition for Preventing and Treating Human Papillomavirus Infection” (GENLOCI BIOTECHNOLOGIES INC., priority 2018, published 2021)",
  "molecules": {"B1": {"name": "HD5: human α-defensin secreted by human Paneth cells (peptide, UniProt Q01523 20-94, looked up)", "Defensin alpha 5": "ESLQERADEATTQKQSGEDNQDLAISFAGNGLSALRTSGSQARATCYCRTGRCATRESLSGVCEISGRLYRLCCR", "modifications": "Defensin-5", "notes": "human α-defensin secreted by human Paneth cells"}},
  "key": {"HPV-16 L1 protein": {"molecular_target": "T1, HPV-16 L1 protein (Human papillomavirus type 16, UniProt P03101)", "T1 construct": "purchased Abcam ab119880", "assay": "Biomolecular interaction analysis (SPR, Biacore 3000) of the polypeptide with HPV-16 L1 protein", "format": "binding", "source_text": "Biomolecular interaction analysis (BIA) is a biosensing analysis technology based on a physical optical phenomenon known as surface plasmon resonance (SPR). BIA can provide real-time observation of the interaction between biomolecules, through which, the binding specificity of two molecules can be observed, how strong the binding of the two molecules is can be known, and how many cooperators and participants there are in the binding process of biomolecules can be known.\nIn this experiment, BIA technology is used to observe whether there is an interaction between the polypeptide of the present invention and the HPV L1 protein, so as to explore the mechanism of inhibiting HPV virus by the polypeptide.\n3. […]\n(5) The coupling effect is automatically calculated by the software. In the experiment, the experimental channel is finally coupled with about 5300 RU of HPV-16 L1 Protein, where the unit RU is the unit of coupling quantity defined by the system. […]\n(8) The program is designed according to the steps of equilibration, testing, equilibration, and regeneration, and the polypeptide solution of each concentration was detected. […] During the detection, the sample passes through the blank channel and the experimental channel in turn, and the data to be detected is the resultant difference of “experimental channel response value minus blank channel response value”. […]"}, "HPV": {"system": "HPV", "conditions": "literature study; HD6 at the highest cytotoxic dose; cited from earlier work"}, "[1]": {"molecular_target": "T2, HPV-16 L1 protein (Cat. No. ab119880, Abcam), recombinantly expressed (human papillomavirus type 16), P03101", "T2 chain": "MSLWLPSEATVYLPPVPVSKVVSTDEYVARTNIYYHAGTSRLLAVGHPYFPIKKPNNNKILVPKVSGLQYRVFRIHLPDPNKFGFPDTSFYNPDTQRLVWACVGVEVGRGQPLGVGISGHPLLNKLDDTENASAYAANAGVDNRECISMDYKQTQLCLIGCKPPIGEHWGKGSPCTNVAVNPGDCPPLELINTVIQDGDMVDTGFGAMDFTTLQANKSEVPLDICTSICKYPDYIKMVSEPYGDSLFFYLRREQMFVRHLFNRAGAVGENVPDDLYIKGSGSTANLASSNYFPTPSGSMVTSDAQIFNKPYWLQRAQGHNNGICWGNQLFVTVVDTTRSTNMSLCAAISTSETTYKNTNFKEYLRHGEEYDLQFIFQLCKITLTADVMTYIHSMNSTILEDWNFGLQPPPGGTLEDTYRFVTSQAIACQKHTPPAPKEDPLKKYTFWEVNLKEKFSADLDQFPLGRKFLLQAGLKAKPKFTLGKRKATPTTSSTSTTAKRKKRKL", "assay": "SPR, Biacore 3000, HPV-16 L1 amine-coupled on chip, polypeptide as analyte"}},
  "note": "No end group written: not given here.",
  "data": [
    {"molecule": "MGRFKRFRKKFKKLFKKLS [The polypeptide]", "values": [
      {"measurement": "Kd", "setting": "HPV-16 L1 protein; KD, Affinity constant, SPR, kinetic analysis, HPV-16 L1 protein", "value": 782, "unit": "pM"},
      {"measurement": "kon", "setting": "HPV-16 L1 protein; read-out: ka, Binding constant", "value": "2.35e+06", "unit": "M⁻¹ s⁻¹"}
    ]},
    {"molecule": "HD6: human α-defensin secreted by human Paneth cells (AFTCHCRRSCYSTEYSYGTCTVMGINHRFCCL; ends and bridges not checked; cysteine pairing not given here; UniProt Q01524 69-100, looked up) [reference compound]", "values": [
      {"measurement": "Activity against HPV", "setting": "HPV", "value": "inactive"}
    ]},
    {"molecule": "MGRFKRFRKKFKKLFKKLS (modifications not checked)", "note": "[the polypeptide of the present invention (antimicrobial polypeptide, SEQ ID NO: 1)]", "values": [
      {"measurement": "Kd", "setting": "[1]", "value": 782, "unit": "pM"},
      {"measurement": "koff", "setting": "[1]", "value": 0.00184, "unit": "s⁻¹"},
      {"measurement": "kon", "setting": "[1]", "value": "2.35e+06", "unit": "M⁻¹ s⁻¹"}
    ]},
    {"molecule": "B1", "values": [
      {"measurement": "Activity against HPV", "setting": "HPV", "value": "inhibiting HPV activity"}
    ]}
  ]
}
